Consider 21 molecules from patent US20190315854A1 (BEIJING VDJBIO, published 2019).

What all share (assay): SPR (BIAcore 3000), antibody on chip, sIL-6R analyte, 25 C
For orientation: SPR reads the build-up and loss of mass on a sensor chip optically.

Assay [1] has as its target T1, sIL-6R (soluble IL-6 receptor; SBH Sciences) (human, UniProt P08887 20-365).
T1 construct: also called human IL-6R
T1 sequence: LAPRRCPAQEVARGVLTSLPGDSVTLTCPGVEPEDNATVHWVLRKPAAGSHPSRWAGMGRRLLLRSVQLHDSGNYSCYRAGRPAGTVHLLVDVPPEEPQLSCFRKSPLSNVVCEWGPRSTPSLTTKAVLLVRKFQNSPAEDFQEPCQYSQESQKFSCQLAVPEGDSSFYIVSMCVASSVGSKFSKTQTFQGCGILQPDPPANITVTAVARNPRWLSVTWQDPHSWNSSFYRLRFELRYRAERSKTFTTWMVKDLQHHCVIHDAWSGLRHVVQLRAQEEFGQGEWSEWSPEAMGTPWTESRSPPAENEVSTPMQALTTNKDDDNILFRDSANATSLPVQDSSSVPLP
As to the method:
(§1) All SPR measurements were performed on a BIAcore 3000 instrument (GE Biosciences, Piscataway, N.J.). BIAcore Software-BIAcore 3000 Control Software V3.2 was used for the operation and control of the BIAcore 3000 instrument. BiaEvaluation Software V4.1 was used for the analysis of SPR data from the BIAcore 3000 instrument and data was plotted using Graph Pad Prism Software Version 5. […] The indicated antibodies were used as the ligand for the construction of the reference channel of the chip. […] Each sample was injected for 3 min at a flow rate of 30 μL/min to allow for binding to chip-bound antibody. Next, binding buffer without analyte was sent over the chip at the same flow rate to allow for dissociation of bound analyte. After 500s, remaining bound analyte was removed by injecting regeneration solution (1M Formic acid). Data was analyzed by using the Kinetics Wizard and the manual fitting programs that are both included with the BiaEvaluation Software V4.1.

Assay [2] has as its target T1, sIL-6R (soluble IL-6 receptor; SBH …). The method, then:
as §1
This is another data set of the same source.

Assay [3] has the same target. The method, then:
as §1
The source holds these as a separate data set.

For assay [4] the target is unchanged. As to the method:
as §1
The source holds these as a separate data set.

For orientation: Kd means the concentration at which binding is half-saturated. A lower Kd goes with higher affinity. As a reminder, the koff is the first-order rate constant of dissociation. The low end stands for slow dissociation, the high end for fast dissociation. The kon is the rate constant with which the complex forms.

Positions count from the first letter of the chain named. Read-outs that look alike come from different tables or passages of the source.

B1: 16# (antibody, human IgG1, kappa, V domains shown)
VH: QVQLQESGPGLVRPSQTLSLTCTVSGYSITSDHAWSWVRQPPGRGLEWIGFISYSGITTYNPSLKSRVTMLRDTSKNQFSLRLSSVTAADTAVYYCARSLARITAMDYWGQGSLVTVSS
VL: DIQMTQSPSSLSASVGDRVTITCRASQDISSYLNWYQQKPGKAPKLLIYYTSRLHSGVPSRFSGSGSGTDFTFTISSLQPEDIATYYCQQGNTLPYTFGQGTKVEIKR
notes: also called Sample # 16
For B1, in assay [1], binding was characterised by a dissociation constant (Kd) of 0.136 nM, the “Relative Affinity” value is 9.8 fold vs 25 (Tocilizumab), the koff was 4.04e-05 s⁻¹ and the on-rate constant (kon) turned out to be 296000 M⁻¹ s⁻¹. For the same molecule, in assay [2], the dissociation constant (Kd) came out at 0.187 nM, the “Relative Affinity” value was 9.1 fold vs 25 (Tocilizumab), the dissociation rate constant (koff) came to 6.3e-05 s⁻¹ and the kon stood at 336000 M⁻¹ s⁻¹.

B2: 51# (antibody, human IgG1, kappa, V domains shown)
VH: B1 VH with F51Y, S99C, I103M
VL: B1 VL
notes: also called Sample # 51
On to B2, for which, in assay [3], binding was put at a Kd of 0.42 nM, the “Relative Affinity” value is 6.8 fold vs 25 (Tocilizumab), the dissociation rate constant (koff) was found to be 5.72e-05 s⁻¹ and the association rate constant (kon) was found to be 136000 M⁻¹ s⁻¹.

B3: 30# (antibody, human IgG1, kappa, V domains shown)
VH: B1 VH with I57M, S99C, I103T
VL: B1 VL
notes: also called Sample # 30
In the case of B3, in assay [1], the Kd is 0.235 nM, the “Relative Affinity” value was 5.7 fold vs 25 (Tocilizumab), the dissociation rate constant (koff) is 7.03e-05 s⁻¹ and the on-rate constant (kon) came to 299000 M⁻¹ s⁻¹. For the same molecule, in assay [2], the affinity, expressed as Kd, was 0.255 nM; the “Relative Affinity” value is 6.7 fold vs 25 (Tocilizumab); the koff came out at 8.33e-05 s⁻¹; the kon was 327000 M⁻¹ s⁻¹.

B4: 28# (antibody, human IgG1, kappa, V domains shown)
VH: B1 VH with I57M, I103T
VL: B1 VL
notes: also called Sample # 28
Consider B4, for which, in assay [1], the Kd was 0.268 nM, the “Relative Affinity” value is 5 fold vs 25 (Tocilizumab), the koff was 7.61e-05 s⁻¹ and the on-rate constant (kon) was found to be 284000 M⁻¹ s⁻¹. In addition, in assay [2], the dissociation constant Kd is 0.408 nM, the “Relative Affinity” value was 4.2 fold vs 25 (Tocilizumab), the off-rate constant (koff) was found to be 0.000148 s⁻¹ and the kon came to 363000 M⁻¹ s⁻¹.

B5: 49# (antibody, human IgG1, kappa, V domains shown)
VH: B1 VH with F51Y, P62A, I103T
VL: B1 VL
notes: also called Sample # 49
For B5, in assay [3], the Kd is 1.65 nM, the “Relative Affinity” value was 1.7 fold vs 25 (Tocilizumab), the off-rate constant (koff) came out at 0.000218 s⁻¹ and the on-rate constant (kon) was 132000 M⁻¹ s⁻¹.

B6: 201# (antibody, human IgG1, kappa, V domains shown)
VH: B1 VH with I57M, S99C, M106I, Y108F
VL: B1 VL
notes: also called Sample # 201
Take B6: in assay [3], the Kd is 0.0674 nM, the “Relative Affinity” value is 42.3 fold vs 25 (Tocilizumab), the off-rate constant (koff) worked out at 1.47e-05 s⁻¹ and the association rate constant (kon) stood at 218000 M⁻¹ s⁻¹.

B7: 66# (antibody, human IgG1, kappa, V domains shown)
VH: B1 VH with I57M, I103M
VL: B1 VL
notes: also called Sample # 66
Regarding B7, in assay [3], the equilibrium dissociation constant (Kd) was 0.141 nM, the “Relative Affinity” value was 20.2 fold vs 25 (Tocilizumab), the koff was 3.38e-05 s⁻¹ and the association rate constant (kon) worked out at 239000 M⁻¹ s⁻¹.

B8: 60# (antibody, human IgG1, kappa, V domains shown)
VH: B1 VH with I57M
VL: B1 VL
notes: also called Sample # 60
Turning to B8, in assay [3], binding was characterised by a dissociation constant (Kd) of 0.205 nM, the “Relative Affinity” value is 13.9 fold vs 25 (Tocilizumab), the koff came out at 4.59e-05 s⁻¹ and the kon was determined as 224000 M⁻¹ s⁻¹.

B9: 62# (antibody, human IgG1, kappa, V domains shown)
VH: B1 VH with I57M, S99C, I103A
VL: B1 VL
notes: also called Sample # 62
Turning to B9, in assay [3], the dissociation constant Kd stood at 0.0258 nM, the “Relative Affinity” value is 110 fold vs 25 (Tocilizumab), the dissociation rate constant (koff) came to 6.61e-06 s⁻¹ and the kon amounted to 256000 M⁻¹ s⁻¹.

B10: 27# (antibody, human IgG1, kappa, V domains shown)
VH: B1 VH with I57M, I103A
VL: B1 VL
notes: also called Sample # 27
As for B10, in assay [1], the Kd was 0.102 nM, the “Relative Affinity” value is 13.1 fold vs 25 (Tocilizumab), the dissociation rate constant (koff) amounted to 3.46e-05 s⁻¹ and the kon was determined as 339000 M⁻¹ s⁻¹. Moreover, in assay [2], binding was put at a Kd of 0.126 nM, the “Relative Affinity” value is 13.6 fold vs 25 (Tocilizumab), the koff is 4.27e-05 s⁻¹ and the association rate constant (kon) is 339000 M⁻¹ s⁻¹.

B11: 68# (antibody, human IgG1, kappa, V domains shown)
VH: B1 VH with I57M, S99C, M106I, W109F
VL: B1 VL
notes: also called Sample # 68
As to B11, in assay [3], the dissociation constant Kd turned out to be 0.0296 nM, the “Relative Affinity” value was 96.3 fold vs 25 (Tocilizumab), the koff is 8.6e-06 s⁻¹ and the on-rate constant (kon) worked out at 291000 M⁻¹ s⁻¹.

B12: 56# (antibody, human IgG1, kappa, V domains shown)
VH: B1 VH with I57M, T58I
VL: B1 VL
notes: also called Sample # 56
Turning to B12, in assay [3], the Kd stood at 0.243 nM, the “Relative Affinity” value is 11.7 fold vs 25 (Tocilizumab), the off-rate (koff) was found to be 5.59e-05 s⁻¹ and the on-rate constant (kon) turned out to be 230000 M⁻¹ s⁻¹.

B13: 24# (antibody, human IgG1, kappa, V domains shown)
VH: B1 VH with F51Y, S99C
VL: B1 VL
notes: also called Sample # 24
As for B13, in assay [1], the Kd came to 0.281 nM, the “Relative Affinity” value is 4.8 fold vs 25 (Tocilizumab), the koff was found to be 7.13e-05 s⁻¹ and the association rate constant (kon) is 254000 M⁻¹ s⁻¹. In assay [2], binding was characterised by a dissociation constant (Kd) of 0.317 nM, the “Relative Affinity” value was 5.4 fold vs 25 (Tocilizumab), the dissociation rate constant (koff) amounted to 7.99e-05 s⁻¹ and the kon was 252000 M⁻¹ s⁻¹.

B14: 31# (antibody, human IgG1, kappa, V domains shown)
VH: B1 VH with I57M
VL: B1 VL
notes: also called Sample # 31
Turning to B14, in assay [1], the dissociation constant Kd amounted to 0.1 nM, the “Relative Affinity” value was 13.4 fold vs 25 (Tocilizumab), the koff is 2.92e-05 s⁻¹ and the on-rate constant (kon) came out at 292000 M⁻¹ s⁻¹. In addition, in assay [2], binding was characterised by a dissociation constant (Kd) of 0.156 nM, the “Relative Affinity” value was 11 fold vs 25 (Tocilizumab), the koff was found to be 5.99e-05 s⁻¹ and the kon was 385000 M⁻¹ s⁻¹.

B15: 18# (antibody, human IgG1, kappa, V domains shown)
VH: B1 VH with S99C
VL: B1 VL
notes: also called Sample # 18
Turning to B15, in assay [1], binding was put at a Kd of 0.141 nM, the “Relative Affinity” value is 9.5 fold vs 25 (Tocilizumab), the off-rate constant (koff) was determined as 4.73e-05 s⁻¹ and the kon was 335000 M⁻¹ s⁻¹. In addition, in assay [2], the dissociation constant (Kd) worked out at 0.167 nM, the “Relative Affinity” value was 10.2 fold vs 25 (Tocilizumab), the koff turned out to be 5.42e-05 s⁻¹ and the association rate constant (kon) stood at 325000 M⁻¹ s⁻¹.

B16: 247# (antibody, human IgG1, kappa, V domains shown)
VH: B1 VH with F51Y, I57M, S99C, I103M
VL: B1 VL with Q89G, T93R
notes: also called Sample # 247
On to B16, for which, in assay [4], binding was characterised by a dissociation constant (Kd) of 0.212 nM, the “Relative Affinity” value is 13.2 fold vs 25 (Tocilizumab), the koff turned out to be 3.54e-05 s⁻¹ and the kon was found to be 167000 M⁻¹ s⁻¹.

B17: 208# (antibody, human IgG1, kappa, V domains shown)
VH: B1 VH with I57M, I103A
VL: B1 VL
notes: also called Sample # 208
In the case of B17, in assay [3], binding was put at a Kd of 0.126 nM, the “Relative Affinity” value is 22.6 fold vs 25 (Tocilizumab), the dissociation rate constant (koff) was 2.79e-05 s⁻¹ and the on-rate constant (kon) came to 221000 M⁻¹ s⁻¹.

B18: 203# (antibody, human IgG1, kappa, V domains shown)
VH: B1 VH with F51Y, S99C, I103M
VL: B1 VL with Q89G, T93R
notes: also called Sample # 203
Turning to B18, in assay [3], binding was put at a Kd of 0.334 nM, the “Relative Affinity” value is 8.5 fold vs 25 (Tocilizumab), the dissociation rate constant (koff) turned out to be 3.17e-05 s⁻¹ and the kon is 95000 M⁻¹ s⁻¹.

B19: 17# (antibody, human IgG1, kappa, V domains shown)
VH: B1 VH with S99C, I103T
VL: B1 VL
notes: also called Sample # 17
Regarding B19, in assay [1], the affinity, expressed as Kd, was 0.304 nM; the “Relative Affinity” value was 4.4 fold vs 25 (Tocilizumab); the koff was found to be 8.71e-05 s⁻¹; the kon worked out at 287000 M⁻¹ s⁻¹. Further, in assay [2], binding was characterised by a dissociation constant (Kd) of 0.354 nM, the “Relative Affinity” value was 4.8 fold vs 25 (Tocilizumab), the koff amounted to 0.000117 s⁻¹ and the association rate constant (kon) amounted to 331000 M⁻¹ s⁻¹.

B20: 64# (antibody, human IgG1, kappa, V domains shown)
VH: B1 VH with I57M, S99C, I103M
VL: B1 VL
notes: also called Sample # 64
On to B20, for which, in assay [3], the Kd came to 0.133 nM, the “Relative Affinity” value was 21.4 fold vs 25 (Tocilizumab), the off-rate (koff) is 2.85e-05 s⁻¹ and the on-rate constant (kon) worked out at 214000 M⁻¹ s⁻¹.

B21: 248# (antibody, human IgG1, kappa, V domains shown)
VH: B1 VH with F51Y, I57M, T58I, S99T, I103M, M106I, Y108F
VL: B1 VL with Q89G, T93R
notes: also called Sample # 248
Consider B21, for which, in assay [4], the dissociation constant (Kd) is 0.189 nM, the “Relative Affinity” value is 14.8 fold vs 25 (Tocilizumab), the koff turned out to be 1.73e-05 s⁻¹ and the kon stood at 91200 M⁻¹ s⁻¹.
